Reference: IntAct's records for PubMed 16902405
Blank lines part the entries; values can stand above or below the substance they belong to.

Tests used:
[1] = target: rab5a_human RAB5A (UniProt P20339)
[2] = target: clh1_human CLTC (UniProt Q00610)
[3] = target: rab1a_human RAB1A (UniProt P62820)
[4] = target: rab6a_human RAB6A (UniProt P20340)
[5] = target: rab6a_human RAB6A (UniProt P20340); remark: listed apart in the source
[6] = target: rab5a_human RAB5A (UniProt P20339); remark: listed apart in the source
[7] = target: rab1a_human RAB1A (UniProt P62820); remark: listed apart in the source
[8] = target: rab6a_human RAB6A (UniProt P20340); remark: listed apart in the source
[9] = target: clh1_human CLTC (UniProt Q00610); remark: listed apart in the source
[10] = target: rab6a_human RAB6A (UniProt P20340); remark: listed apart in the source
[11] = target: clh1_human CLTC (UniProt Q00610); remark: listed apart in the source
[12] = target: rab5a_human RAB5A (UniProt P20339); remark: listed apart in the source
[13] = target: rab6a_human RAB6A (UniProt P20340); remark: listed apart in the source
[14] = target: rab1a_human RAB1A (UniProt P62820); remark: listed apart in the source
[15] = target: rab6a_human RAB6A (UniProt P20340); remark: listed apart in the source
[16] = target: rab5a_human RAB5A (UniProt P20339); remark: listed apart in the source
[17] = target: rab1a_human RAB1A (UniProt P62820); remark: listed apart in the source

Chain of Inositol polyphosphate 5-phosphatase OCRL (Homo sapiens), Q01968 D555E (Q01968 whole entry D555E): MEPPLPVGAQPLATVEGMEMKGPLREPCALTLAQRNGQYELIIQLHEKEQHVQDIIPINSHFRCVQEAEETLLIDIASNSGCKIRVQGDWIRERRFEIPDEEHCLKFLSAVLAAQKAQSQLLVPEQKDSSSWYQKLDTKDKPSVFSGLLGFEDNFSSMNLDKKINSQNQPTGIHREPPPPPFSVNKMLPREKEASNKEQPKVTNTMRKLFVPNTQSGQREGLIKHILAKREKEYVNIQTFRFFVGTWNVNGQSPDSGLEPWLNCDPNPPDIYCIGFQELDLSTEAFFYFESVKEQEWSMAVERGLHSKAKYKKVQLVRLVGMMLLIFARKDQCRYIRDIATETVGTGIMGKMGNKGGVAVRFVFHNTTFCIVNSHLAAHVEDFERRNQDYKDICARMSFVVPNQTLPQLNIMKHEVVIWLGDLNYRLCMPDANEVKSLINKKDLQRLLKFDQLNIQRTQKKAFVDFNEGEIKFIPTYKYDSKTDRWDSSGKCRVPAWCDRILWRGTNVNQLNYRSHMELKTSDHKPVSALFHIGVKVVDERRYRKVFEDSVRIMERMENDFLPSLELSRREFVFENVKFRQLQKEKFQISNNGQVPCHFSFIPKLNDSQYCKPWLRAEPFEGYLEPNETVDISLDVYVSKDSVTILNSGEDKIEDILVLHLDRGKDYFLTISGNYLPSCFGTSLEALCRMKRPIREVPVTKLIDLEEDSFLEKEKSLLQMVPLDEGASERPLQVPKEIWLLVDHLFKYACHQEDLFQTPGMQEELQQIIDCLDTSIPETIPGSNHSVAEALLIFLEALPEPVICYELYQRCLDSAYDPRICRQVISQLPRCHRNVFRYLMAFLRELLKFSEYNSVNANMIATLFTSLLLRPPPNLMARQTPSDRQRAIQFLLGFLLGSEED
Chain of rab5a_human RAB5A (P20339 whole entry): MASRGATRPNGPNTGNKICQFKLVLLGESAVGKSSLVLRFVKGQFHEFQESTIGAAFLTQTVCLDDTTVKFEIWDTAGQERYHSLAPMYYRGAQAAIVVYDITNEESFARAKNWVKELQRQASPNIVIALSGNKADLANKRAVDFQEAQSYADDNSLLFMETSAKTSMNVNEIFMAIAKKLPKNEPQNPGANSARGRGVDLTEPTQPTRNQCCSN
Chain of rab1a_human RAB1A (P62820 whole entry): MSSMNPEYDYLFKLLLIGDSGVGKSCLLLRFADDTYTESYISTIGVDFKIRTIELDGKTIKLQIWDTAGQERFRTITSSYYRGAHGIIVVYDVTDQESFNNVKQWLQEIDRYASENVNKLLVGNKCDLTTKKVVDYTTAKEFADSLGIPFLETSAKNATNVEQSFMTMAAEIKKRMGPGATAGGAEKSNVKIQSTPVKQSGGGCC
Chain of Inositol polyphosphate 5-phosphatase OCRL (Homo sapiens), Q01968 S564P (Q01968 whole entry S564P): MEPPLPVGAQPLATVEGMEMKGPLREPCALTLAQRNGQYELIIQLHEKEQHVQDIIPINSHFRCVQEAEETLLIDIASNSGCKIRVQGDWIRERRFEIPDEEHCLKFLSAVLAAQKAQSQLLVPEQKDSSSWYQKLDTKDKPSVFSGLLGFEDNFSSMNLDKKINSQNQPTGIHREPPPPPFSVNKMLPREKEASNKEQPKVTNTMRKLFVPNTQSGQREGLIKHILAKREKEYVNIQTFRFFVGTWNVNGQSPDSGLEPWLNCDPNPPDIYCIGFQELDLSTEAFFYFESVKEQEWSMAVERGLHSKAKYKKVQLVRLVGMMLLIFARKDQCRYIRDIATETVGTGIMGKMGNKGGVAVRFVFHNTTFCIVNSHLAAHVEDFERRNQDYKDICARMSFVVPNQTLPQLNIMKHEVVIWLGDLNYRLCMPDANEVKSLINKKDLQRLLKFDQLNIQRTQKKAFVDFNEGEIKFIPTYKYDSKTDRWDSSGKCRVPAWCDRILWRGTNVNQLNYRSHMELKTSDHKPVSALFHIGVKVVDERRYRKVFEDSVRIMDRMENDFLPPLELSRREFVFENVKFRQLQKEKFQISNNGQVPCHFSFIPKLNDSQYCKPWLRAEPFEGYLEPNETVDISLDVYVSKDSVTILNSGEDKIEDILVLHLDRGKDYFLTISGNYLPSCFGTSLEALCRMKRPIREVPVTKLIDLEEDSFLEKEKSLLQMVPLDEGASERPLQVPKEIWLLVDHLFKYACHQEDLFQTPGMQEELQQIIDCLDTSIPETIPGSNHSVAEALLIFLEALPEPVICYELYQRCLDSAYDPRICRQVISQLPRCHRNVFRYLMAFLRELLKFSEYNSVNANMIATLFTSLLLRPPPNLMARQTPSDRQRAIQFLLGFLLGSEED
Chain of rab6a_human RAB6A (P20340 whole entry, looked up): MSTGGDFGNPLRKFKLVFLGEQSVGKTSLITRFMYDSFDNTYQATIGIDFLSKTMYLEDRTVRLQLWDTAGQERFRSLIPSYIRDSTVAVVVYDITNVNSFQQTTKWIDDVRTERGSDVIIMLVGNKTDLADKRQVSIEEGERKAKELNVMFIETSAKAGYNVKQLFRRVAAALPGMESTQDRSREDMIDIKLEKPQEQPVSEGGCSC
Chain of Inositol polyphosphate 5-phosphatase OCRL (Homo sapiens), Q01968 S568G (Q01968 whole entry S568G): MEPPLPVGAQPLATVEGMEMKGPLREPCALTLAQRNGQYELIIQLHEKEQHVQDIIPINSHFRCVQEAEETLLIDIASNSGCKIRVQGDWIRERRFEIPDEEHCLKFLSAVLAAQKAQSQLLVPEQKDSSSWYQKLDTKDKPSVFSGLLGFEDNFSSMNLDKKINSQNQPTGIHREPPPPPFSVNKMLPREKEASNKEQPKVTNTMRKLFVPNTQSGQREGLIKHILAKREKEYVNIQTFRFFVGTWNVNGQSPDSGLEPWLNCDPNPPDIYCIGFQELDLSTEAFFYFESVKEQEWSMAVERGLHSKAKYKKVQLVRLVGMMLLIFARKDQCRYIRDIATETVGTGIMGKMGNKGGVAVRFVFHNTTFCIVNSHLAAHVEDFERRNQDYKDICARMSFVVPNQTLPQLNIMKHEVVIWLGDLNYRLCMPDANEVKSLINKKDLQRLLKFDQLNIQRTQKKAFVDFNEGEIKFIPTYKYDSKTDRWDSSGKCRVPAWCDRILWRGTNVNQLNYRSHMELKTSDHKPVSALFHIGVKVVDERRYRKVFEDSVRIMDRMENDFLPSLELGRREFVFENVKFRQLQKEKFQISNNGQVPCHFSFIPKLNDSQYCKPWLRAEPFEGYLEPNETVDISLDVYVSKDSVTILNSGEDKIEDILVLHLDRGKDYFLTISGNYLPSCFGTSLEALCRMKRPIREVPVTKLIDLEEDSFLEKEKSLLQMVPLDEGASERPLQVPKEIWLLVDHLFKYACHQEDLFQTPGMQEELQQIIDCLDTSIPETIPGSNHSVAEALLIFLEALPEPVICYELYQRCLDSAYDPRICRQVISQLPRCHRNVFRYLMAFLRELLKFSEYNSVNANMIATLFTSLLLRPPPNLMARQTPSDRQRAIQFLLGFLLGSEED
Chain of clh1_human CLTC (Q00610 whole entry): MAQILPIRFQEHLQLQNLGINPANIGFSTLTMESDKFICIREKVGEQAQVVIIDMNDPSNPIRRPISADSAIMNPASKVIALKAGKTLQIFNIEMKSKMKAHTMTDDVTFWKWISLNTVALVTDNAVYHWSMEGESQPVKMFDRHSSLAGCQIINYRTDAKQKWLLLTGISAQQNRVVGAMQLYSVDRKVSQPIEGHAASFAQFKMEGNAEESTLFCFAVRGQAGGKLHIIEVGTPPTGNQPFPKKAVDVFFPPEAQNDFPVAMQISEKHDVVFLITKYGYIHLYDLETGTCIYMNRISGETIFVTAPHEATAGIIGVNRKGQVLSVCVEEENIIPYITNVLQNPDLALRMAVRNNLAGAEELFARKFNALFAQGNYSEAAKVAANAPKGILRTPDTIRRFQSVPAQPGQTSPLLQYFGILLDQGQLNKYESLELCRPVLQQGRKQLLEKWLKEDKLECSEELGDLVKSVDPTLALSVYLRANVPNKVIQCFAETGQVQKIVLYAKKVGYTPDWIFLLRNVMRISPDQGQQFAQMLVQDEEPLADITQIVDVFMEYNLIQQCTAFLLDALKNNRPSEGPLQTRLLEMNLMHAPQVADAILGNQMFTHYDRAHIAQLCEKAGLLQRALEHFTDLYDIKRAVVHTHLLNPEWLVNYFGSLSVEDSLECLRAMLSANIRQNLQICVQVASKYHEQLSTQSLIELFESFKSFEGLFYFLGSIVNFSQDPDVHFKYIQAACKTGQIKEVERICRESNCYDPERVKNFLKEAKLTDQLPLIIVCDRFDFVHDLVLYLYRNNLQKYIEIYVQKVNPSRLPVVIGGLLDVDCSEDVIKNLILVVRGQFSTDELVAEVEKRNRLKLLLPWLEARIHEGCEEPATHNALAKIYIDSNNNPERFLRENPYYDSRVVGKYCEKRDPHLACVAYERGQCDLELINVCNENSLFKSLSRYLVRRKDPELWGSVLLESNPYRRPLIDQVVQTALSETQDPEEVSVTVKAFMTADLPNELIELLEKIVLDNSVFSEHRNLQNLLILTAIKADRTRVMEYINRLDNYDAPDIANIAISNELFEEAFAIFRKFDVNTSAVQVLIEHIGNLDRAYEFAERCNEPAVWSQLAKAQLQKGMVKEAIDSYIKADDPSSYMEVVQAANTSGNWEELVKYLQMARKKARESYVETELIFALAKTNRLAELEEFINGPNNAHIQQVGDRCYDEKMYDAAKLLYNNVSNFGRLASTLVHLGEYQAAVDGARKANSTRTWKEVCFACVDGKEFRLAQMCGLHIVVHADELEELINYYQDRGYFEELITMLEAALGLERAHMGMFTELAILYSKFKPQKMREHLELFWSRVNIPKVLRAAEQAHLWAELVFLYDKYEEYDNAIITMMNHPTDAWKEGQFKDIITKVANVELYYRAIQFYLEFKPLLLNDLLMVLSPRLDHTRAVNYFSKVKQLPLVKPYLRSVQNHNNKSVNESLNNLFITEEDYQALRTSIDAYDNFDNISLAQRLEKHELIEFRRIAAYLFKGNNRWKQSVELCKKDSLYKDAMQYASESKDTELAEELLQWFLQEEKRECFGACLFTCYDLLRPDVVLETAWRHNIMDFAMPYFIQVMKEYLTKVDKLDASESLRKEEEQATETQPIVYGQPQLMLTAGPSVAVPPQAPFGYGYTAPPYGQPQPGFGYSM

effect of a mutation on the interaction [1]: decreasing interaction | effect of a mutation on the interaction [2]: decreasing interaction | effect of a mutation on the interaction [3]: disrupting interaction | effect of a mutation on the interaction [4]: decreasing interaction
Substance: Inositol polyphosphate 5-phosphatase OCRL (Homo sapiens), Q01968 D555E

effect of a mutation on the interaction [5]: disrupting interaction | effect of a mutation on the interaction [6]: decreasing interaction | effect of a mutation on the interaction [7]: disrupting interaction
Substance: Inositol polyphosphate 5-phosphatase OCRL (Homo sapiens), Q01968 G664D

effect of a mutation on the interaction [8]: increasing interaction | effect of a mutation on the interaction [9]: increasing interaction
Substance: Inositol polyphosphate 5-phosphatase OCRL (Homo sapiens), Q01968 N606K

effect of a mutation on the interaction [10]: increasing interaction | effect of a mutation on the interaction [11]: increasing interaction
Substance: Inositol polyphosphate 5-phosphatase OCRL (Homo sapiens), Q01968 P526H

effect of a mutation on the interaction [12]: decreasing interaction | effect of a mutation on the interaction [13]: disrupting interaction | effect of a mutation on the interaction [14]: disrupting interaction
Substance: Inositol polyphosphate 5-phosphatase OCRL (Homo sapiens), Q01968 S564P

effect of a mutation on the interaction [15]: decreasing interaction | effect of a mutation on the interaction [16]: increasing interaction | effect of a mutation on the interaction [17]: increasing interaction
Substance: Inositol polyphosphate 5-phosphatase OCRL (Homo sapiens), Q01968 S568G
